According to paper PMC3859071, “Development of a Multiplex Sandwich Aptamer Microarray for the Detection of VEGF165 and Thrombin”:

Experiments:
VEGF165 [1] = target: T1, VEGF165 (human, UniProt P15692-4 27-191); assay: EMSA supershift; 10 uM VEGF165; ternary complex; EMSA: TBSE (0.05 mM EDTA, 10 mM Tris-HCl, 100 mM NaCl, pH 7; Vap7 folded with +100 mM KCl), 25 C, 30-60 min, 0.1 uM aptamer; 12% gel in 50 mM glycine pH 9.5 with or without 10 mM KCl. Microarray: TBSE, 25 C, 30 min, PBS washes; conditions: protein: commercial; chain copies: 2; label: 5'-FAM on strand 2; two separate aptamers, not a duplex
T1 sequence (P15692 other isoform, or with tags, fused parts or gaps): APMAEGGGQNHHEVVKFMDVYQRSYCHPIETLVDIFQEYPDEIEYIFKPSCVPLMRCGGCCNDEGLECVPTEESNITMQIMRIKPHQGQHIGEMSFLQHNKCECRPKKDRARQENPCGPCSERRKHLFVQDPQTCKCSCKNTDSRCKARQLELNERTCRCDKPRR

VEGF165 [2] = target: T1, VEGF165; assay: EMSA; 100 mM KCl; EMSA: TBSE (0.05 mM EDTA, 10 mM Tris-HCl, 100 mM NaCl, pH 7; Vap7 folded with +100 mM KCl), 25 C, 30-60 min, 0.1 uM aptamer; 12% gel in 50 mM glycine pH 9.5 with or without 10 mM KCl. Microarray: TBSE, 25 C, 30 min, PBS washes; conditions: protein: commercial; chain copies: 2; G4
VEGF165 [3] = target: T1, VEGF165; assay: EMSA; 5 uM VEGF165; EMSA: TBSE (0.05 mM EDTA, 10 mM Tris-HCl, 100 mM NaCl, pH 7; Vap7 folded with +100 mM KCl), 25 C, 30-60 min, 0.1 uM aptamer; 12% gel in 50 mM glycine pH 9.5 with or without 10 mM KCl. Microarray: TBSE, 25 C, 30 min, PBS washes; conditions: protein: commercial; chain copies: 2; label: 5'-FAM; three stem-loops (predicted)
VEGF165 [4] = target: T1, VEGF165; assay: EMSA; 5 uM VEGF165; two shifted bands; EMSA: TBSE (0.05 mM EDTA, 10 mM Tris-HCl, 100 mM NaCl, pH 7; Vap7 folded with +100 mM KCl), 25 C, 30-60 min, 0.1 uM aptamer; 12% gel in 50 mM glycine pH 9.5 with or without 10 mM KCl. Microarray: TBSE, 25 C, 30 min, PBS washes; conditions: protein: commercial; chain copies: 2; label: 5'-FAM; G4
VEGF165 [5] = target: T1, VEGF165; assay: EMSA; EMSA: TBSE (0.05 mM EDTA, 10 mM Tris-HCl, 100 mM NaCl, pH 7; Vap7 folded with +100 mM KCl), 25 C, 30-60 min, 0.1 uM aptamer; 12% gel in 50 mM glycine pH 9.5 with or without 10 mM KCl. Microarray: TBSE, 25 C, 30 min, PBS washes; conditions: protein: commercial; chain copies: 2; three stem-loops (predicted)
VEGF165 [6] = target: T1, VEGF165; assay: sandwich aptamer microarray; detected with VEa5-Cy5; EMSA: TBSE (0.05 mM EDTA, 10 mM Tris-HCl, 100 mM NaCl, pH 7; Vap7 folded with +100 mM KCl), 25 C, 30-60 min, 0.1 uM aptamer; 12% gel in 50 mM glycine pH 9.5 with or without 10 mM KCl. Microarray: TBSE, 25 C, 30 min, PBS washes; conditions: protein: commercial; chain copies: 2

B1: VEa5-NH2 + Vap7-FAM (mixed)
DNA 1: ATACCAGTCTATTCAATTGGGCCCGTCCGTATGGTGGGTGTGCTGGCCAGATAGTATGTGCAATCA
DNA 2: ATACCAGTCTATTCAATTGCACTCTGTGGGGGTGGACGGGCCGGGTAGA
modifications: 5'-amino on strand 1
Question: Does B1 bind (VEGF165 [1])?
Answer: binds

Question: Does ATACCAGTCTATTCAATTGCACTCTGTGGGGGTGGACGGGCCGGGTAGA (structured_DNA) [Vap7] bind (VEGF165 [2])?
Answer: binds

B2: Vap7-NH2 + VEa5-FAM (mixed)
DNA 1: B1 DNA 2
DNA 2: B1 DNA 1
modifications: 5'-amino on strand 1
Question: Does B2 bind (VEGF165 [1])?
Answer: binds

B3: VEa5-FAM (structured_DNA)
DNA: B1 DNA 1
Question: Does B3 bind (VEGF165 [3])?
Answer: binds

Question: Does ATACCAGTCTATTCAATTGCACTCTGTGGGGGTGGACGGGCCGGGTAGA (structured_DNA) [Vap7-FAM] bind (VEGF165 [4])?
Answer: binds

B4: VEa5 (structured_DNA)
DNA: B1 DNA 1
Question: Does B4 bind (VEGF165 [5])?
Answer: binds

Question: Does TCACGCTTATTTAAGAAGCTGTTTGGTGGAGG (ssDNA, 5'-amino) [Random DNA-NH2] bind (VEGF165 [6])?
Answer: no binding
